According to patent publication US20180120332A1 (CLEMSON UNIVERSITY RESEARCH FOUNDATION, published 2018):
Ends that are not written are not given here.

B1: RGDS peptide (peptide)
peptide: RGDS
modifications: also: N-terminus conjugated to oxidized alginate (EDC-NHS) or methacrylated and co-polymerized with PEGDA
B2: RGDSP peptide (peptide)
peptide: RGDSP
modifications: also: N-terminus conjugated to oxidized alginate (EDC-NHS) or methacrylated and co-polymerized with PEGDA
B3: α1 peptide (TFALRGDNP), RGD peptide derived from laminin α1 subunit (peptide)
peptide: TFALRGDNP
modifications: also: N-terminus conjugated to oxidized alginate (EDC-NHS) or methacrylated and co-polymerized with PEGDA

Each binder was assayed against αvβ3 integrin on human umbilical vein endothelial cells (HUVECs) (human, UniProt P06756 31-1048; P05106 27-788) (assay: cell-based or functional assay).
Sequence of αvβ3 integrin on human umbilical vein endothelial cells (HUVECs) (P06756 31-1048, chain 1 of 2): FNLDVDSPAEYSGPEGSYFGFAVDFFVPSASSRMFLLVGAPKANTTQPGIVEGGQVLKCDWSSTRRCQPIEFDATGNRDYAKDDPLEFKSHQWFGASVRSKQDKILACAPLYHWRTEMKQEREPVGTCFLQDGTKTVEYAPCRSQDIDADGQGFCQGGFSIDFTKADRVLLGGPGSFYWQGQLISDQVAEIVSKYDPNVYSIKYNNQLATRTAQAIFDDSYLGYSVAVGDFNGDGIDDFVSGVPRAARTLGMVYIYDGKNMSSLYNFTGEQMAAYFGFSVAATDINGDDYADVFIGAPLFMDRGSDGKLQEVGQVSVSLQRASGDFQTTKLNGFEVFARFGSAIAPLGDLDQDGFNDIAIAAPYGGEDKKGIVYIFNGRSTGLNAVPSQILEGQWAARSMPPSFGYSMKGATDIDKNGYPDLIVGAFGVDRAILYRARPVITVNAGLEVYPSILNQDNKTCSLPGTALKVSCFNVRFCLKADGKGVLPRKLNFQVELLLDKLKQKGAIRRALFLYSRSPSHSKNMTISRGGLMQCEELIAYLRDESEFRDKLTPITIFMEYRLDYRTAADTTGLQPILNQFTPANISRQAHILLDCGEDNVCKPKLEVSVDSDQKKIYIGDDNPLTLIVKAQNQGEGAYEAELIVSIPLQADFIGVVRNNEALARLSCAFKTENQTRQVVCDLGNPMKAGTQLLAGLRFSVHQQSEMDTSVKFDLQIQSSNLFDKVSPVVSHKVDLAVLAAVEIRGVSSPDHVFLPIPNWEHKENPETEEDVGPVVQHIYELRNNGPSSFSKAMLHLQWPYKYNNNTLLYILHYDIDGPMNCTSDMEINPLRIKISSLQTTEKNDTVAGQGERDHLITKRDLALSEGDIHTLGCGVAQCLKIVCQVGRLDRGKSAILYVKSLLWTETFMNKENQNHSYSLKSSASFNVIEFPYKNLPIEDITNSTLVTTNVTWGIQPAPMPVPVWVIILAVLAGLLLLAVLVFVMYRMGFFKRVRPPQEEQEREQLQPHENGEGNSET
Sequence of αvβ3 integrin on human umbilical vein endothelial cells (HUVECs) (P05106 27-788, chain 2 of 2): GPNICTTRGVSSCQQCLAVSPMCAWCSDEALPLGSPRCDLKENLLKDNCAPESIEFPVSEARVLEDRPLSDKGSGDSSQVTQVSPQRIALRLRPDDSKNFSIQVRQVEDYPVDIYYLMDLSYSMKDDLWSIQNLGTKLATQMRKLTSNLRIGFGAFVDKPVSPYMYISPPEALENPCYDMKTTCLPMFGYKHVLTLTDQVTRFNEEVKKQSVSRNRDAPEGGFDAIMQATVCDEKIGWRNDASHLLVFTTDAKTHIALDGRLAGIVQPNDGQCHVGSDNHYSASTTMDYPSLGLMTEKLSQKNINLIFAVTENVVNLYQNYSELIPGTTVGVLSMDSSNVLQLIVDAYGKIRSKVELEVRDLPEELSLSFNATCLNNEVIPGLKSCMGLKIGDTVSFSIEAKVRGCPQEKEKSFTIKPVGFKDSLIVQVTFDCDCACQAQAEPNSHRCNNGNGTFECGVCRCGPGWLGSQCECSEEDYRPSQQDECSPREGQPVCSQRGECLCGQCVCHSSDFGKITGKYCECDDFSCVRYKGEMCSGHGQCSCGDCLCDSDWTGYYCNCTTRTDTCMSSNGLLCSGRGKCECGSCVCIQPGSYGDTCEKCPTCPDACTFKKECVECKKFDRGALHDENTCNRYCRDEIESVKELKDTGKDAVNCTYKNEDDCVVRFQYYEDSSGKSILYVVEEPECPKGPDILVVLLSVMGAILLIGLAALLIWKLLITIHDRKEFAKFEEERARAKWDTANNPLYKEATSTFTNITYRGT

Binder | decrease in HUVEC adhesion on peptide functionalized alginate when αvβ3 integrin is blocked [%]
B1 | ~35
B2 | ~35
B3 | ~60
